Earlier results as cited in paper PMC5368065.

What was measured:
[1] = biological target: MLL1 MBM1-MBM2 (Homo sapiens) (UniProt Q03164)
MLL1 (Homo sapiens) = MLL1 (Homo sapiens) (UniProt Q03164)

For Menin (from UniProt O00255), the Kd [1] is listed as 0.01 µM and the Kd (MLL1 (Homo sapiens)) is listed as 0.01 µM.
